Assay results from paper PMC5153249.
Where “and” joins values, the source holds several entries; their conditions need not be identical. Identical values can stand only once.

Experiments:
[1] = tested on: yeast 43S PIC: 40S+eIF1+eIF1A+eIF2 (Met-tRNAi TC); for mRNA recruitment also eIF5, eIF4A, eIF4B, eIF4E-eIF4G;eIF3 (a Box6) (Saccharomyces cerevisiae;Saccharomyces cerevisiae); test: EMSA; conditions: measurement 1; m7G cap; 30 mM HEPES-KOH pH 7.4, 100 mM KOAc, 3 mM Mg(OAc)2, 2 mM DTT, 1 mM GDPNP, 26 C, 2 h; native 4% THEM gel
[2] = tested on: yeast 43S PIC: 40S+eIF1+eIF1A+eIF2 (Met-tRNAi TC); for mRNA recruitment also eIF5, eIF4A, eIF4B, eIF4E-eIF4G;eIF3 (c GAP85) (Saccharomyces cerevisiae;Saccharomyces cerevisiae); test: EMSA; conditions: measurement 1; m7G cap; 30 mM HEPES-KOH pH 7.4, 100 mM KOAc, 3 mM Mg(OAc)2, 2 mM DTT, 1 mM GDPNP, 26 C, 2 h; native 4% THEM gel
[3] = tested on: yeast 43S PIC: 40S+eIF1+eIF1A+eIF2 (Met-tRNAi TC); for mRNA recruitment also eIF5, eIF4A, eIF4B, eIF4E-eIF4G;eIF3 (c Box12-SPW) (Saccharomyces cerevisiae;Saccharomyces cerevisiae); test: EMSA; conditions: measurement 1; m7G cap; 30 mM HEPES-KOH pH 7.4, 100 mM KOAc, 3 mM Mg(OAc)2, 2 mM DTT, 1 mM GDPNP, 26 C, 2 h; native 4% THEM gel
[4] = tested on: yeast 43S PIC: 40S+eIF1+eIF1A+eIF2 (Met-tRNAi TC); for mRNA recruitment also eIF5, eIF4A, eIF4B, eIF4E-eIF4G;eIF3 (g KLF) (Saccharomyces cerevisiae;Saccharomyces cerevisiae); test: EMSA; conditions: measurement 1; m7G cap; 30 mM HEPES-KOH pH 7.4, 100 mM KOAc, 3 mM Mg(OAc)2, 2 mM DTT, 1 mM GDPNP, 26 C, 2 h; native 4% THEM gel
[5] = tested on: yeast 43S PIC: 40S+eIF1+eIF1A+eIF2 (Met-tRNAi TC); for mRNA recruitment also eIF5, eIF4A, eIF4B, eIF4E-eIF4G;eIF3 (c delta60) (Saccharomyces cerevisiae;Saccharomyces cerevisiae); test: EMSA; conditions: measurement 1; m7G cap; 30 mM HEPES-KOH pH 7.4, 100 mM KOAc, 3 mM Mg(OAc)2, 2 mM DTT, 1 mM GDPNP, 26 C, 2 h; native 4% THEM gel
[6] = tested on: yeast 43S PIC: 40S+eIF1+eIF1A+eIF2 (Met-tRNAi TC); for mRNA recruitment also eIF5, eIF4A, eIF4B, eIF4E-eIF4G;eIF3 (a R731I) (Saccharomyces cerevisiae;Saccharomyces cerevisiae); test: EMSA; conditions: measurement 1; m7G cap; 30 mM HEPES-KOH pH 7.4, 100 mM KOAc, 3 mM Mg(OAc)2, 2 mM DTT, 1 mM GDPNP, 26 C, 2 h; native 4% THEM gel
[7] = tested on: yeast 43S PIC: 40S+eIF1+eIF1A+eIF2 (Met-tRNAi TC); for mRNA recruitment also eIF5, eIF4A, eIF4B, eIF4E-eIF4G;eIF3 (a H725P) (Saccharomyces cerevisiae;Saccharomyces cerevisiae); test: EMSA; conditions: measurement 1; m7G cap; 30 mM HEPES-KOH pH 7.4, 100 mM KOAc, 3 mM Mg(OAc)2, 2 mM DTT, 1 mM GDPNP, 26 C, 2 h; native 4% THEM gel
[8] = tested on: yeast 43S PIC: 40S+eIF1+eIF1A+eIF2 (Met-tRNAi TC); for mRNA recruitment also eIF5, eIF4A, eIF4B, eIF4E-eIF4G;eIF3 (i Q258R) (Saccharomyces cerevisiae;Saccharomyces cerevisiae); test: EMSA; conditions: measurement 1; m7G cap; 30 mM HEPES-KOH pH 7.4, 100 mM KOAc, 3 mM Mg(OAc)2, 2 mM DTT, 1 mM GDPNP, 26 C, 2 h; native 4% THEM gel
[9] = tested on: yeast 43S PIC: 40S+eIF1+eIF1A+eIF2 (Met-tRNAi TC); for mRNA recruitment also eIF5, eIF4A, eIF4B, eIF4E-eIF4G;eIF3 WT (a/b/c/i/g) (Saccharomyces cerevisiae;Saccharomyces cerevisiae); test: EMSA; conditions: measurement 1; m7G cap; 30 mM HEPES-KOH pH 7.4, 100 mM KOAc, 3 mM Mg(OAc)2, 2 mM DTT, 1 mM GDPNP, 26 C, 2 h; native 4% THEM gel
[10] = tested on: yeast 43S PIC: 40S+eIF1+eIF1A+eIF2 (Met-tRNAi TC); for mRNA recruitment also eIF5, eIF4A, eIF4B, eIF4E-eIF4G;eIF3 (a Box37) (Saccharomyces cerevisiae;Saccharomyces cerevisiae); test: EMSA; conditions: measurement 1; m7G cap; 30 mM HEPES-KOH pH 7.4, 100 mM KOAc, 3 mM Mg(OAc)2, 2 mM DTT, 1 mM GDPNP, 26 C, 2 h; native 4% THEM gel
[11] = tested on: yeast 43S PIC: 40S+eIF1+eIF1A+eIF2 (Met-tRNAi TC); for mRNA recruitment also eIF5, eIF4A, eIF4B, eIF4E-eIF4G;eIF3 a/b/c sub-complex (Saccharomyces cerevisiae;Saccharomyces cerevisiae); test: EMSA; conditions: measurement 1; m7G cap; 30 mM HEPES-KOH pH 7.4, 100 mM KOAc, 3 mM Mg(OAc)2, 2 mM DTT, 1 mM GDPNP, 26 C, 2 h; native 4% THEM gel
[12] = tested on: yeast 43S PIC: 40S+eIF1+eIF1A+eIF2 (Met-tRNAi TC); for mRNA recruitment also eIF5, eIF4A, eIF4B, eIF4E-eIF4G;eIF3 (a delta8) (Saccharomyces cerevisiae;Saccharomyces cerevisiae); test: EMSA; conditions: measurement 1, m7G cap, 30 mM HEPES-KOH pH 7.4, 100 mM KOAc, 3 mM Mg(OAc)2, 2 mM DTT, 1 mM GDPNP, 26 C, 2 h, native 4% THEM gel
[13] = tested on: yeast 43S PIC: 40S+eIF1+eIF1A+eIF2 (Met-tRNAi TC); for mRNA recruitment also eIF5, eIF4A, eIF4B, eIF4E-eIF4G;eIF3 (b prt1-1) (Saccharomyces cerevisiae;Saccharomyces cerevisiae); test: EMSA; conditions: measurement 1; m7G cap; 30 mM HEPES-KOH pH 7.4, 100 mM KOAc, 3 mM Mg(OAc)2, 2 mM DTT, 1 mM GDPNP, 26 C, 2 h; native 4% THEM gel
[14] = tested on: yeast 43S PIC: 40S+eIF1+eIF1A+eIF2 (Met-tRNAi TC); for mRNA recruitment also eIF5, eIF4A, eIF4B, eIF4E-eIF4G (Saccharomyces cerevisiae); test: EMSA; conditions: no eIF3, measurement 1, m7G cap, 30 mM HEPES-KOH pH 7.4, 100 mM KOAc, 3 mM Mg(OAc)2, 2 mM DTT, 1 mM GDPNP, 26 C, 2 h, native 4% THEM gel
[15] = tested on: yeast 43S PIC: 40S+eIF1+eIF1A+eIF2 (Met-tRNAi TC); for mRNA recruitment also eIF5, eIF4A, eIF4B, eIF4E-eIF4G;eIF3 (b rnp1) (Saccharomyces cerevisiae;Saccharomyces cerevisiae); test: EMSA; conditions: measurement 1; m7G cap; 30 mM HEPES-KOH pH 7.4, 100 mM KOAc, 3 mM Mg(OAc)2, 2 mM DTT, 1 mM GDPNP, 26 C, 2 h; native 4% THEM gel
[16] = target: 43S pre-initiation complex (40S, eIF1, eIF1A, ternary complex; no mRNA) (S. cerevisiae) (UniProt P32911); test: native gel or EMSA; gel shift monitoring [35S]-Met-tRNAi; 43S PICs without mRNA (1 µM eIF1, 1 µM eIF1A, 200 nM eIF2, 1 mM GDPNP•Mg2+, 2 nM Met-tRNAi, 30 nM 40S); eIF3 titrated 30-500 nM; 1X Recon buffer (30 mM HEPES-KOH pH 7.4, 100 mM KOAc, 3 mM Mg(OAc)2, 2 mM DTT), 26 °C, 2 h; apparent KD, Hill equation; single experiments; apparent affinities ≤ 30 nM likely upper limits

Kd [16] | Substance | binding signal [1] [% recruited] | binding signal [2] [% recruited] | binding signal [3] [% recruited] | binding signal [4] [% recruited] | binding signal [5] [% recruited] | binding signal [6] [% recruited] | binding signal [7] [% recruited] | binding signal [8] [% recruited] | binding signal [9] [% recruited] | binding signal [10] [% recruited] | binding signal [11] [% recruited] | binding signal ([12]; text: no recruitment) [% recruited] | binding signal [13] [% recruited] | binding signal ([14]; almost no recruitment) [% recruited] | binding signal [15] [% recruited] | binding signal [12] [% recruited] | binding signal [14] [% recruited] | binding signal ([14]; columns as in Fig 5) [% recruited]
 | 3'5-AUG model mRNA | 73.3 | 81 | 75.1 | 72.6 | 78.3 | 73.6 | 77.1 | 71 | 78.9 | 67.2 | 50.3 | 5.17 | 77.9 | 1.04 | 66.2 |  |  | 
 | 3'17-AUG model mRNA |  |  |  |  |  |  |  |  | 97.2 |  |  |  |  |  |  | 89.9 | 71.4 | 
 | 5'5-AUG model mRNA | 62.5 | 80.1 | 85.3 | 84.7 | 87.9 | 57.7 | 58.2 | 80.3 | 84.1 | 82.5 | 32.1 |  | 79.9 |  | 69.4 | 91.7 | 68.2 | 
 | 5'11-AUG model mRNA | 97.8 |  |  |  |  | 91.8 | 94.6 |  | 97.9 |  | 66.7 |  |  |  |  |  |  | 90.9
0.043 µM and 0.024 µM | eIF3 (wild type) (from UniProt P38249 1-964; P06103 1-763; P32497 1-812; P40217 1-347; Q04067 1-274) (complex) |  |  |  |  |  |  |  |  |  |  |  |  |  |  |  |  |  | 
